Read-outs that look alike come from different tables or passages of the source. Where a SMILES comes first, the peptide text is derived from it. Where no end group is shown, it is not given here. [ ]: non-standard residue; d: D form. The star is where a group is joined. Palmitoyl = CCCCCCCCCCCCCCCC(=O)*; Tridecanoyl = CCCCCCCCCCCCC(=O)*; Myristoyl = CCCCCCCCCCCCCC(=O)*; NMeA = CN[C@@H](C)C(=O)O; Nle = CCCC[C@H](N)C(=O)O; Dap = NC[C@H](N)C(=O)O
B1: analog no. 4 (peptide)
peptide: [Dap](Tridecanoyl)RAHQHS[Nle]ETRTPDINPAWYTGRGIRPVGRF-NH2
modifications: N-terminus assumed
SMILES: CCCCCCCCCCCCC(=O)NC[C@H](N)C(=O)N[C@@H](CCCNC(=N)N)C(=O)N[C@@H](C)C(=O)N[C@@H](Cc1c[nH]cn1)C(=O)N[C@@H](CCC(N)=O)C(=O)N[C@@H](Cc1c[nH]cn1)C(=O)N[C@@H](CO)C(=O)N[C@@H](CCCC)C(=O)N[C@@H](CCC(=O)O)C(=O)N[C@H](C(=O)N[C@@H](CCCNC(=N)N)C(=O)N[C@H](C(=O)N1CCC[C@H]1C(=O)N[C@@H](CC(=O)O)C(=O)N[C@H](C(=O)N[C@@H](CC(N)=O)C(=O)N1CCC[C@H]1C(=O)N[C@@H](C)C(=O)N[C@@H](Cc1c[nH]c2ccccc12)C(=O)N[C@@H](Cc1ccc(O)cc1)C(=O)N[C@H](C(=O)NCC(=O)N[C@@H](CCCNC(=N)N)C(=O)NCC(=O)N[C@H](C(=O)N[C@@H](CCCNC(=N)N)C(=O)N1CCC[C@H]1C(=O)N[C@H](C(=O)NCC(=O)N[C@@H](CCCNC(=N)N)C(=O)N[C@@H](Cc1ccccc1)C(N)=O)C(C)C)[C@@H](C)CC)[C@@H](C)O)[C@@H](C)CC)[C@@H](C)O)[C@@H](C)O
notes: analog of rat PrRP31
B2: analog no. 10 (peptide)
peptide: Myristoyl-TPDINPAWYTGRGIRPVGRF-NH2
SMILES: CCCCCCCCCCCCCC(=O)N[C@H](C(=O)N1CCC[C@H]1C(=O)N[C@@H](CC(=O)O)C(=O)N[C@H](C(=O)N[C@@H](CC(N)=O)C(=O)N1CCC[C@H]1C(=O)N[C@@H](C)C(=O)N[C@@H](Cc1c[nH]c2ccccc12)C(=O)N[C@@H](Cc1ccc(O)cc1)C(=O)N[C@H](C(=O)NCC(=O)N[C@@H](CCCNC(=N)N)C(=O)NCC(=O)N[C@H](C(=O)N[C@@H](CCCNC(=N)N)C(=O)N1CCC[C@H]1C(=O)N[C@H](C(=O)NCC(=O)N[C@@H](CCCNC(=N)N)C(=O)N[C@@H](Cc1ccccc1)C(N)=O)C(C)C)[C@@H](C)CC)[C@@H](C)O)[C@@H](C)CC)[C@@H](C)O
notes: myristoylated rat PrRP20
B3: analog no. 41 (peptide)
peptide: Myristoyl-TPDINPAWY[NMeA]SRGIRPVGRF-NH2
SMILES: CCCCCCCCCCCCCC(=O)N[C@H](C(=O)N1CCC[C@H]1C(=O)N[C@@H](CC(=O)O)C(=O)N[C@H](C(=O)N[C@@H](CC(N)=O)C(=O)N1CCC[C@H]1C(=O)N[C@@H](C)C(=O)N[C@@H](Cc1c[nH]c2ccccc12)C(=O)N[C@@H](Cc1ccc(O)cc1)C(=O)N(C)[C@@H](C)C(=O)N[C@@H](CO)C(=O)N[C@@H](CCCNC(=N)N)C(=O)NCC(=O)N[C@H](C(=O)N[C@@H](CCCNC(=N)N)C(=O)N1CCC[C@H]1C(=O)N[C@H](C(=O)NCC(=O)N[C@@H](CCCNC(=N)N)C(=O)N[C@@H](Cc1ccccc1)C(N)=O)C(C)C)[C@@H](C)CC)[C@@H](C)CC)[C@@H](C)O

Columns and labels:
[1] = target: T1, rat PrRP receptor (GPR10) in RC-4B/C cells (Rattus norvegicus, UniProt Q64121); experiment: Competitive binding to rat pituitary RC-4B/C cells
T1 construct: host or cells: RC-4B/C rat pituitary cell line
T1 sequence (Q64121 1-370): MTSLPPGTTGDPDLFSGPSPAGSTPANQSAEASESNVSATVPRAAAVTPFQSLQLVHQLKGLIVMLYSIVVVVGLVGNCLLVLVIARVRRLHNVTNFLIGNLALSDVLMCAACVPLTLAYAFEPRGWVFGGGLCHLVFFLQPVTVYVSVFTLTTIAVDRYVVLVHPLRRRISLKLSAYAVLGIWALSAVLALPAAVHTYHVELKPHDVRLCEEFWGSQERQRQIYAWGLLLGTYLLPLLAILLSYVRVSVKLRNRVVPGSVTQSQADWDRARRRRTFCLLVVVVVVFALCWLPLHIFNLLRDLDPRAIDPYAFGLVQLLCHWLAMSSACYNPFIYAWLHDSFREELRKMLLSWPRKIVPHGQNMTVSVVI
Method: Competitive binding experiments were performed according to Motulsky and Neubig (Motulsky, A., et al., “Analyzing radioligand binding data,” Curr Protoc Neurosci, Chapter 7, Unit 7.5, 2002). The rat pituitary cell line RC-4B/C (ATCC, Manassas, USA) was grown on 24-well plates which had their bottom coated with polyethyleneimine. The cells were grown to the optimal density of 300-450 thousand per well. […] Plates were incubated for 60 minutes at room temperature. After incubation, the cells were solubilized in 0.1 mol/l solution of NaOH and the radioactivity bound to the cells was counted using a γ-counter. The experiments were performed in duplicate and repeated at least three times. For evaluation of competitive binding experiments, the program Graph Pad Prism Software (San Diego, Calif., USA) was used. A method of nonlinear regression assuming one-site binding was used.

[2] = tested on: fasted C57BL/6 mice; experiment: Food intake in fasted mice after SC administration; format: in vivo, mouse; details: fasted C57BL/6 mice, 5 mg/kg SC, 45 min
Summary of the method: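 Male C57BL/6 mice, food-deprived 17 h, received saline, PrRP or lipidated analogs either SC at 1-10 mg/kg or ICV into the third ventricle at 4 nmol/mouse.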

[3] = target: T2, rat PrRP receptor in RC-4B/C cells (rat, UniProt Q64121 1-370); experiment: competition with 125I-rat PrRP31 on RC-4B/C cells
T2 construct: whole, on cells; also called the rat receptor; GPR10
T2 sequence (looked up): T1 sequence (Q64121 1-370)
Method: (§1) The rat pituitary cell line RC-4B/C (ATCC, Manassas, USA) was grown on 24-well plates which had their bottom coated with polyethyleneimine. The cells were grown to the optimal density of 300-450 thousand per well.
(§2) Plates were incubated for 60 minutes at room temperature. After incubation, the cells were solubilized in 0.1 mol/l solution of NaOH and the radioactivity bound to the cells was counted using a γ-counter. The experiments were performed in duplicate and repeated at least three times.

[4] = target: T2, rat PrRP receptor in RC-4B/C cells; experiment: competition with 125I-rat PrRP31 on RC-4B/C cells; Ki by Cheng-Prusoff
Method: as §1, §2
For evaluation of competitive binding experiments, the program Graph Pad Prism Software (San Diego, Calif., USA) was used. A method of nonlinear regression assuming one-site binding was used.

[5] = target: T3, human PrRP receptor, GPR10, transfected in CHO cells (human, UniProt P49683 1-370); experiment: competition with 125I-human PrRP31 on CHO cells with transfected human GPR10
T3 construct: whole, on cells; also called human GPR10 receptor; the human receptor GPR10 in CHO cells
T3 sequence (looked up): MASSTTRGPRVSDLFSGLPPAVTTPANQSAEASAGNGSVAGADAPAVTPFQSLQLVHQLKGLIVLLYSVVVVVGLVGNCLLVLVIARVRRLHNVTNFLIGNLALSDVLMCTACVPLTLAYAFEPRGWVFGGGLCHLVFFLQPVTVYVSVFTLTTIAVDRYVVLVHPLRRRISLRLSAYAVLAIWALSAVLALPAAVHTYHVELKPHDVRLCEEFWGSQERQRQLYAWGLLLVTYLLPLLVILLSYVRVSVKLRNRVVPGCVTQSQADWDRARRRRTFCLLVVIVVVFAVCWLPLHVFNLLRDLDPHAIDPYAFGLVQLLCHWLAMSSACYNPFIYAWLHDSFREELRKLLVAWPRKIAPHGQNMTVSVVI
Method: CHO cells with transfected human PrRP receptor, GPR10 (Perkin Elmer, USA) were grown on 24-well plates coated with polyethyleneimine. The cells were grown to the optimal density of 40-80 thousand cells per well.
as §2

[6] = target: T2, rat PrRP receptor in RC-4B/C cells; experiment: competition with 125I-rat PrRP31 on RC-4B/C cells; remark: listed apart in the source
[7] = rat RC-4B/C cells, Table 5, read-out: C-4B/C cells ^25I-rat PrRP31 Ki

| Molecule | Ki [1, 7] [nM] | % of PrRP31 binding [3] [%] | Ki [4] [nM] | also measured |
| --- | --- | --- | --- | --- |
| CCCCCCCCCCCCCC(=O)N[C@H](C(=O)N1CCC[C@H]1C(=O)N[C@@H](CC(=O)O)C(=O)N[C@H](C(=O)N[C@@H](CC(N)=O)C(=O)N1CCC[C@H]1C(=O)N[C@@H](C)C(=O)N[C@@H](Cc1c[nH]c2ccccc12)C(=O)N[C@@H](Cc1ccc(O)cc1)C(=O)N[C@@H](C)C(=O)N[C@@H](CO)C(=O)N[C@@H](CCCNC(=N)N)C(=O)NCC(=O)N[C@H](C(=O)N[C@@H](CCCNC(=N)N)C(=O)N1CCC[C@H]1C(=O)N[C@H](C(=O)NCC(=O)N[C@@H](CCCNC(=N)N)C(=O)N[C@@H](Cc1ccccc1)C(N)=O)C(C)C)[C@@H](C)CC)[C@@H](C)CC)[C@@H](C)O [Analog 13] (Myristoyl-TPDINPAWYASRGIRPVGRF-NH2) |  |  |  | Ki ([1]; ^125I-rat PrRP31, RC-4B/C cells, Table 3, read-out: ^125I-rat PrRP31 Ki): 0.41 ± 0.13 nM |
| CCCCCCCCCCCCCCCC(=O)N[C@@H](CO)C(=O)N[C@@H](CCCNC(=N)N)C(=O)N[C@@H](C)C(=O)N[C@@H](Cc1c[nH]cn1)C(=O)N[C@@H](CCC(N)=O)C(=O)N[C@@H](Cc1c[nH]cn1)C(=O)N[C@@H](CO)C(=O)N[C@@H](CCCC)C(=O)N[C@@H](CCC(=O)O)C(=O)N[C@H](C(=O)N[C@@H](CCCNC(=N)N)C(=O)N[C@H](C(=O)N1CCC[C@H]1C(=O)N[C@@H](CC(=O)O)C(=O)N[C@H](C(=O)N[C@@H](CC(N)=O)C(=O)N1CCC[C@H]1C(=O)N[C@@H](C)C(=O)N[C@@H](Cc1c[nH]c2ccccc12)C(=O)N[C@@H](Cc1ccc(O)cc1)C(=O)N[C@H](C(=O)NCC(=O)N[C@@H](CCCNC(=N)N)C(=O)NCC(=O)N[C@H](C(=O)N[C@@H](CCCNC(=N)N)C(=O)N1CCC[C@H]1C(=O)N[C@H](C(=O)NCC(=O)N[C@@H](CCCNC(=N)N)C(=O)N[C@@H](Cc1ccccc1)C(N)=O)C(C)C)[C@@H](C)CC)[C@@H](C)O)[C@@H](C)CC)[C@@H](C)O)[C@@H](C)O [Analog 19] (Palmitoyl-SRAHQHS[Nle]ETRTPDINPAWYTGRGIRPVGRF-NH2) | 0.51 ± 0.16 |  |  | Food intake in mice (5 mg/kg SC) % saline-treated group (45 min) [2]: 2% |
| CCCCCCCCCCCCCC(=O)N[C@H](C(=O)N1CCC[C@H]1C(=O)N[C@@H](CC(=O)O)C(=O)N[C@H](C(=O)N[C@@H](CC(N)=O)C(=O)N1CCC[C@H]1C(=O)N[C@@H](C)C(=O)N[C@@H](Cc1c[nH]c2ccccc12)C(=O)N[C@@H](Cc1ccc(O)cc1)C(=O)N(C)[C@@H](C)C(=O)N[C@@H](CO)C(=O)N[C@@H](CCCNC(=N)N)C(=O)NCC(=O)N[C@H](C(=O)N[C@@H](CCCNC(=N)N)C(=O)N1CCC[C@H]1C(=O)N[C@H](C(=O)NCC(=O)N[C@@H](CCCNC(=N)N)C(=O)N[C@@H](Cc1ccccc1)C(N)=O)C(C)C)[C@@H](C)CC)[C@@H](C)CC)[C@@H](C)O [Analog 41] (Myristoyl-TPDINPAWY[NMeA]SRGIRPVGRF-NH2) | 0.46 ± 0.05 |  |  |  |
| CCCCCCCCCCCCCCCC(=O)N[C@@H](CO)C(=O)N[C@@H](CCCNC(=N)N)C(=O)N[C@@H](C)C(=O)N[C@@H](Cc1c[nH]cn1)C(=O)N[C@@H](CCC(N)=O)C(=O)N[C@@H](Cc1c[nH]cn1)C(=O)N[C@@H](CO)C(=O)N[C@@H](CCSC)C(=O)N[C@@H](CCC(=O)O)C(=O)N[C@H](C(=O)N[C@@H](CCCNC(=N)N)C(=O)N[C@H](C(=O)N1CCC[C@H]1C(=O)N[C@@H](CC(=O)O)C(=O)N[C@H](C(=O)N[C@@H](CC(N)=O)C(=O)N1CCC[C@H]1C(=O)N[C@@H](C)C(=O)N[C@@H](Cc1c[nH]c2ccccc12)C(=O)N[C@@H](Cc1ccc(O)cc1)C(=O)N[C@H](C(=O)NCC(=O)N[C@@H](CCCNC(=N)N)C(=O)NCC(=O)N[C@H](C(=O)N[C@@H](CCCNC(=N)N)C(=O)N1CCC[C@H]1C(=O)N[C@H](C(=O)NCC(=O)N[C@@H](CCCNC(=N)N)C(=O)N[C@@H](Cc1ccccc1)C(N)=O)C(C)C)[C@@H](C)CC)[C@@H](C)O)[C@@H](C)CC)[C@@H](C)O)[C@@H](C)O [Analog 61] (Palmitoyl-SRAHQHSMETRTPDINPAWYTGRGIRPVGRF-NH2) | 0.41 ± 0.12 |  |  | Food intake in mice (5 mg/kg SC) % saline-treated group (45 min) [2]: 2% |
| B1 |  | 967 | 0.51 |  |
| TPDINPAWYTGRGIRPVGRF-NH2 [Rat PrRP20] |  | 143 | 3.44 |  |
| B2 |  | 632 | 0.78 |  |
| B3 |  |  |  | Ki [5]: 2.1 nM; Ki [6]: 0.46 nM |

— patent publication US9937235B2, “Lipidated peptides as anti-obesity agents” (USTAV ORGANICKE CHEMIE A BIOCHEMIE AKADEMIE VED CR, V.V.I, priority 2012, dated 2018)
